B1: CXCL5: recombinant mouse CXCL5 (BioLegend #573302), chemokine (protein, UniProt P50228 41-132, looked up)
C-X-C motif chemokine 5: APSSVIAATELRCVCLTVTPKINPKLIANLEVIPAGPQCPTVEVIAKLKNQKEVCLDPEAPVIKKIIQKILGSDKKKAKRNALAVERTASVQ
B2: CXCL17: recombinant mouse CXCL17 (BioLegend #585402), chemokine (protein, UniProt Q5UW37 23-119, looked up)
C-X-C motif chemokine 17: SPNPGVARSHGDQHLAPRRWLLEGGQECECKDWFLQAPKRKATAVLGPPRKQCPCDHVKGREKKNRHQKHHRKSQRPSRACQQFLKRCHLASFALPL

Tests used:
prostate cancer = conditions: phase III clinical trial in prostate cancer; cited from earlier work
[1] = tested on: whole bone marrow (BM) mouse cells and Gr1+ cells; assay: 4 day culture of bone marrow and Gr1+ cells in GM-CSF, IL-6 medium plus recombinant chemokine; type: cell-based; conditions: 4 days culture with IL6 and GM-CSF, recombinant chemokine 200 nM
Text: (§1) Gr1+ cells and monocytes were isolated from the bone marrow (tibias and femurs) of C57BL/6 wild type, 3 months old mice using the MACS Myltenyi Biotec Cell Isolation system according to the manufacturer's instruction. For monocytes isolation the Monocyte Isolation Kit (BM) (Miltenyi 130-100-629) was used, whereas Gr1 positive cells were isolated using the antibody Anti-Gr-1-Biotin, clone RB6-8C5 (Miltenyi 130-101-894). Red blood cells were lysed with the ACK lysis buffer (ThermoFisher Scientific A1049201). Total bone marrow cells and Gr1+ cells were cultured for 4 days. Briefly, 40 ng/ml GM-CSF (PeproTech #315-03) and 40 ng/ml IL-6 (PeproTech #216-16) were added to the control medium RPMI 1640 (ThermoFisher Scientific 11875-093), supplemented with penicillin-streptomycin, 10% FBS, 10 mM HEPES, 20 μM 2-Mercaptoethanol. Either recombinant mouse CXCL5 (BioLegend #573302) or recombinant mouse CXCL17 (BioLegend #585402) was added at the beginning of the experiment (200 nM). For the migration assay 2.5×10^5 MACS sorted cells were resuspended in 100 μL of either RPMI 1640 control medium or organoid complete medium and placed on the upper well of the transwell system (5 μm, Corning #160241). The migration assay with recombinant proteins was performed by adding to the bottom well 600 μL of RMPI1640 control medium supplemented with the indicated amount of either CXCL5 or CXCL17. The migration assay with organoid conditioned medium was performed by adding to the bottom well 600 μL of medium collected over 5 days of culture of prostate organoids with the indicated genotype. The migration of cells was quantified by flow cytometry, 15 seconds acquisition time, using BD LSR II flow cytometer.
For Flow Cytometry, spleen and lymph node single cell suspensions were prepared by mashing the tissue in 2% FBS/PBS. Tumor and control prostate tissue (from anterior lobes) single cell suspension was prepared by mincing the tumor and digestion with Collagenase Type I (Life Technologies #17018029) in 10% DMEM (GIBCO) for 1 hr at 37° C. Cell suspensions were passed through […] cell strainers to obtain single cell suspensions. Blood samples and single cell suspensions were re-suspended in 1-2 ml of ACK red cell lysis buffer (GIBCO) and lysed on ice for 1 minute. Cell suspensions were then washed in 2% FBS/PBS, centrifuged and re-suspended in 0.5-1 ml of 2% FBS/PBS. […] All staining mixtures were analyzed on a BD LSR II flow cytometer (Becton Dickinson). Resulting profiles were further processed and analyzed using the FlowJo 8.7 software.
Microarray analysis and gene set enrichment analysis on mouse tumor tissue were conducted and analyzed as previously described by Palucka, A. K. et al. (Palucka, A. K. et al. Cell 164, 1233-1247 (2016)). […]

[2] = tested on: Gr1+ cells isolated from the bone marrow of healthy mice; assay: Transwell migration assay with recombinant proteins, Gr1+ cells; type: cell-based, mouse; conditions: increasing concentration of recombinant protein in bottom well
Text: as §1, with “The migration assay with recombinant proteins was performed by adding to the bottom well 600 μL of RMPI1640 control medium supplemented with the indicated amount of either CXCL5 or CXCL17. The migration assay with organoid conditioned medium was performed by adding to the bottom well 600 μL of medium collected over 5 days of culture of prostate organoids with the indicated genotype.” left out

[3] = tested on: monocytes isolated from the bone marrow of healthy mice; assay: Transwell migration assay with recombinant proteins, monocytes; type: cell-based, mouse; conditions: increasing concentration of recombinant protein in bottom well
Text: as §1, with “The migration assay with recombinant proteins was performed by adding to the bottom well 600 μL of RMPI1640 control medium supplemented with the indicated amount of either CXCL5 or CXCL17. The migration assay with organoid conditioned medium was performed by adding to the bottom well 600 μL of medium collected over 5 days of culture of prostate organoids with the indicated genotype.” left out

Molecule | survival benefit (prostate cancer) | expression of the Ly6C and Ly6G markers and expression profile of the genes tested [1] | expression of the Ly6C and Ly6G markers and expression profile of the genes tested ([1]; listed as recombinant CXCL5) | migration of Gr1+ cells [2] | expression of the Ly6C and Ly6G markers and expression profile of the genes tested ([1]; listed as recombinant CXCL17) | migration of monocytes (Ly6G−/Ly6C^hi cells) [3]
COc1cccc2c1c(O)c(C(=O)N(C)c1ccc(C(F)(F)F)cc1)c(=O)n2C [Tasquinimod] | failed to show a clear survival benefit | – | – | – | – | –
B1 | – | did not observe any significant difference | did not show significant changes | strongly induced the migration | – | –
B2 | – | did not observe any significant difference | – | – | did not show significant changes | chemoattractants

Reference: US20210301349A1, “COMPOSITIONS AND METHODS FOR TREATING A TUMOR SUPPRESSOR DEFICIENT CANCER” (BETH ISRAEL DEACONESS MEDICAL CENTER, INC., priority 2016, published 2021)
